Assay results reported in doi:10.1101/2024.03.26.586676 (bioRxiv, 2024).
Read-outs that look alike come from different tables or passages of the source.

Tests used:
[1] = target: T1, Hrp48-RRM1 (Drosophila melanogaster, UniProt P48809 1-88); assay: ITC
T1 sequence: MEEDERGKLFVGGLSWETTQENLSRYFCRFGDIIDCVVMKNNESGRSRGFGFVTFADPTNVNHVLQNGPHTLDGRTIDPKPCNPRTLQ

[2] = target: T2, Hrp48-RRM12;Sxl-dRBD3;Unr-CSD12 (Drosophila melanogaster;Drosophila …, UniProt P48809;P19339;B7Z0E2 1-173;123-294;186-337, ||); assay: SEC-MALS
T2 sequence 1: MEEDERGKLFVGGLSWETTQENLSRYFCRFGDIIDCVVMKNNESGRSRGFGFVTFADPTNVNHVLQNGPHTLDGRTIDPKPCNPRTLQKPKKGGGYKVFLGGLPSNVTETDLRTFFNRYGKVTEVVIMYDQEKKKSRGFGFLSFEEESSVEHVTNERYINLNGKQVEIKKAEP
T2 sequence 2: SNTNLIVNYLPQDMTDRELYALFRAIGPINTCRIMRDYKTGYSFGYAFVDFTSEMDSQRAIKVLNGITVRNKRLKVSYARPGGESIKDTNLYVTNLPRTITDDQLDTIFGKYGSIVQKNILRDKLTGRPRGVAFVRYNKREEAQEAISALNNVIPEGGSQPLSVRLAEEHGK
T2 sequence 3: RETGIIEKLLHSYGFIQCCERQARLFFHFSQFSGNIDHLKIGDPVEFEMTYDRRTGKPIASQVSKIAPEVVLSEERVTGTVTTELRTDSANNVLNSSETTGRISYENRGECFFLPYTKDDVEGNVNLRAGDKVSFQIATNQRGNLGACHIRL

[3] = target: T3, Hrp48-RRM12 (Drosophila melanogaster, UniProt P48809 1-173); assay: ITC
T3 sequence: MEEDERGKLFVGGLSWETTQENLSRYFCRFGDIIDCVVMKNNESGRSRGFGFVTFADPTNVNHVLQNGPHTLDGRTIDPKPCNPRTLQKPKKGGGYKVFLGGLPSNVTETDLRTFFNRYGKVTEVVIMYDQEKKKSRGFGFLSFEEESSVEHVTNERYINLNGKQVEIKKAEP

[4] = target: T4, Sxl-dRBD3;Unr-CSD12 (Drosophila melanogaster;Drosophila …, UniProt P19339;B7Z0E2 123-294;186-337, |); assay: SEC
T4 sequence 1: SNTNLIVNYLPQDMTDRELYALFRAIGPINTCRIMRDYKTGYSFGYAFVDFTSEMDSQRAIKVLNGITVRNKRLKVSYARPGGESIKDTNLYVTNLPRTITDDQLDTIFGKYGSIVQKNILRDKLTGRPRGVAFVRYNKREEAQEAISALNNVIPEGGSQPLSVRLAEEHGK
T4 sequence 2: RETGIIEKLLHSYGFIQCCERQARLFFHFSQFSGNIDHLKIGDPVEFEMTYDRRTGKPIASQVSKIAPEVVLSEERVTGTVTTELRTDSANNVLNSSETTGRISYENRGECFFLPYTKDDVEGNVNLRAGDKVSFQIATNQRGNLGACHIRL

[5] = target: T3, Hrp48-RRM12; assay: NMR
[6] = target: T3, Hrp48-RRM12; assay: ITC; remark: listed apart in the source
[7] = target: T5, Hrp48-RRM2 (Drosophila melanogaster, UniProt P48809 89-173); assay: NMR
T5 sequence: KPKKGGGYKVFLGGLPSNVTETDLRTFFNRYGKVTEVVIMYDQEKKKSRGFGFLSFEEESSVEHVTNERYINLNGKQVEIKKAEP

[8] = target: T5, Hrp48-RRM2; assay: NMR; remark: listed apart in the source
[9] = target: T1, Hrp48-RRM1; assay: NMR
[10] = target: T3, Hrp48-RRM12; assay: EMSA
[11] = target: the molecule itself; assay: SEC-MALS
[12] = target: T1, Hrp48-RRM1; assay: ITC; remark: listed apart in the source
[13] = target: T4, Sxl-dRBD3;Unr-CSD12; assay: SEC-MALS
[14] = target: T2, Hrp48-RRM12;Sxl-dRBD3;Unr-CSD12; assay: SEC-MALS; remark: listed apart in the source
[15] = target: T3, Hrp48-RRM12; assay: NMR; remark: listed apart in the source

Q: Which Kd [1] does the source give for UAGGAU (ssRNA) [6-mer-2] here?
A: 8700 nM

Q: Which results are given for UUUUUUUGAGCACGUGAAGGUAGGAUUAAG (ssRNA) [GG-30-mer]?
A: binding result [2]: binds; binding result [3]: binds; binding result [4]: binds

Q: Does UAGG (ssRNA) [4-mer-3] bind [5]?
A: binds

Q: For UAGGAUUAAG (ssRNA) [10-mer-WT], which Kd [6] is on record?
A: 17.3 ± 2.9 nM

Q: Which Kd [1] does the source give for AACCUA (ssRNA) [6-mer-1] here?
A: 1300 nM

Q: Does AACCUA (ssRNA) [6-mer-1] bind [7]?
A: no binding

Q: Which results are given for AUUAAG (ssRNA) [6-mer-3]?
A: binding result [8]: binds; binding result [9]: binds

Q: Does UUUUUUUGAGCACGUGAAGGUAGGAUUAAG (ssRNA) [GG-30-mer-Cy5] bind [10]?
A: binds

B1: Hrp48-RRM2 (residues 89-173) (domain or fragment, Drosophila melanogaster, UniProt P48809 89-173, looked up)
chain: KPKKGGGYKVFLGGLPSNVTETDLRTFFNRYGKVTEVVIMYDQEKKKSRGFGFLSFEEESSVEHVTNERYINLNGKQVEIKKAEP
Q: Which “stoichiometry N” value [11] does the source give for B1 here?
A: 4

Q: Does AAGAAC (ssRNA) [6-mer-4] bind [8]?
A: binds

Q: Does AAGAAC (ssRNA) [6-mer-4] bind [12]?
A: binds

Q: UAGGUUAAG (ssRNA) [9-mer (P-element site)] was tested. Which Kd [6] did it give?
A: 14.8 ± 3.7 nM

Q: Does UUUUUUUGAGCACGUGAACCUAGGAUUAAG (ssRNA) [WT-30-mer] bind [13]?
A: binds

Q: Does UUUUUUUGAGCACGUGAACCUAGGAUUAAG (ssRNA) [WT-30-mer] bind [14]?
A: binds

Q: Does UAAG (ssRNA) [4-mer-6] bind [15]?
A: binds
